Results reported in patent publication US7265263B1, “Potato transcription factors, methods of use thereof, and a method for enhancing tuber development” (Iowa State University Research Foundation, Inc., priority 2002, dated 2007).

How the values were obtained:
[1] = tested on: ga20ox1 promoter; experiment: Transcription assay, GUS reporter driven by ga20ox1 promoter in tobacco protoplasts; format: cell-based, potato
Excerpt: The cauliflower mosaic virus (CaMV) 35S promoter in pBI221 (Clontech, Palo Alto, Calif.) was replaced by an enhancer fragment (-832 to -50) of the 35S promoter plus 980 bp of the ga20ox1 promoter to generate the pGAOP::β-glucuronidase (GUS) reporter construct. With this construct, the reporter GUS transcription level is augmented but its transcription may still be affected by the ga20ox1 promoter. A CaMV 35S promoter-driven luciferase (LUC) construct 35S-LUC (obtained from Dr. Takahashi, Dept. of Biological Sciences, Graduate School of Science, Univ. of Tokyo, Japan) was used as an internal control. Effector constructs were also generated by using pBI221 vector as a backbone, with the GUS gene replaced by the full-length cDNAs of either StBEL-05 or POTH1, downstream of the CaMV 35S promoter. Truncated cDNAs that encode the N-terminal protein-binding domains of StBEL-05 or POTH1 were used to generate the dominant negative constructs, StBEL5ΔC295 and POTH1ΔC122, respectively. The reporter construct with the mutated promoter was generated by site-directed PCR mutagenesis with oligos 5′-CTATTTGACTTC*ACACGGTTATTT-3′ (SEQ ID NO:23) and 5′-AAATAACCGTGTG*AAGTCAAATAG-3′ (SEQ ID NO:24).
Fully expanded leaves from three- to four-week-old tobacco plants were excised and placed in K3 basal media (Kao et al., “Nutritional Requirements for Growth of Vicia hajastana Cells and Protoplasts at a Very Low Density in Liquid Media,” Planta 126:105-110 (1975), which is hereby incorporated by reference in its entirety) supplemented with 0.4 M sucrose, 0.25% (w-v) cellulases (Karlan Research Products, Santa Rosa, CA), and 0.05% (w-v) macerases (Calbiochem, La Jolla, Calif.) and incubated for overnight at 28° C. After incubation, the liberated protoplasts were filtered through sterile cheesecloth into a Babcock bottle, and centrifuged for 10 minutes at 1000 rpm. Protoplasts were collected from the bottleneck area and washed once in K3 media with 0.4 M sucrose and resuspended in K3 media containing 0.4 M glucose to a final concentration of 4×10^6 protoplasts per milliliter. […]
(§1) Luciferase assays were performed by injecting 100-μL luciferase substrate (Promega, Madison, Wis.) into 20 μL of extract and measuring the emitted photons for 15 seconds in a TD-20 luminometer (Turner Designs, Sunnyvale, Calif.). […] A fluorescence multiwell plate reader, Fluoroskan II (MTX labs, Vienna, Va.), was used to measure GUS activity at 365 nm (excitation) and 455 nm (emission). Each sample was measured three times for both LUC and GUS activity. Relative GUS-LUC activity was calculated by dividing the ratio of GUS activity to LUC activity from different effectors with the ratio from reporter plasmid alone. Relative activities calculated from three transfection replications were presented as a mean±SE.

[2] = tested on: CaMV 35S promoter; experiment: Transcription assay, GUS reporter driven by CaMV 35S promoter in tobacco protoplasts; format: cell-based, cauliflower mosaic virus
Procedure: FIGS. 24A-C show schematics of constructs (FIG. 24A) and the repression effect of StBEL-05 and POTH1 on the ga20ox1 promoter (FIG. 24B) and on the 35S CaMV promoter (FIG. 24C). The construct with the LUC gene under the control of the cauliflower mosaic virus (CaMV) 35S promoter was used as an internal control. Each transfection was performed three times. Relative GUS-LUC activity was calculated with reporter alone set as 100%. Data are means±SE.
For each transfection analysis, 700 μL of tobacco protoplasts (prepared as described above) were mixed with 30 μL 2 M KCl and plasmid DNA in an electroporation cuvette with 0.4-cm electrode gap. […]
as §1

[3] = tested on: potato ga20ox1 promoter (P1, P2, P3) and first intron; experiment: Gel retardation assay with ga20ox1 promoter regions and first intron; format: binding
Excerpt: The first intron with partial flanking exon sequence (450 bp) of potato ga20ox1 and its promoter (981 bp, provided by Dr. Salomé Prat, CSIC Cantoblanco Campus, Univ. of Madrid, Spain) were used for gel mobility shift assays. Polymerase chain reaction (PCR) was used to amplify three regions of the promoter: -981 to 636 (P1), -660 to 307 (P2), and -331 to 0 (P3). About a 25-bp overlap was maintained between P1 and P2 or P2 and P3 in the chance that the protein-binding site would span the overlapped region. The first intron of this gene was amplified from potato genomic DNA by using PCR and the oligos 5′-[…]-3′ (SEQ ID NO:21) and 5′-[…]-3′ (SEQ ID NO:22) as primers. These primers were designed based on the site of the first intron of the tobacco GA20 oxidase gene Ntc12. The four fragments were purified on a 1.4% agarose gel and labeled with α^32P-dATP using Klenow fragment. […]
In the competition assays, unlabeled double-stranded DNA fragments (10×, 25×, 50×, 100×) were incubated with the recombinant protein before the addition of the radioactive probe. The dissociation rates were determined by adding 500-fold more cold DNA fragments to the DNA-binding reactions that were being incubated on ice, and loaded onto the running gel every 10 minutes. […]

[4] = tested on: POTH1; experiment: In vitro binding assay (immunoprecipitation) with POTH1; parameters: species or system Solanum tuberosum; settings: in vitro
Procedure: In vitro binding experiments were performed as described by Ni et al., “PIF3, a Phytochrome-Interacting Factor Necessary for Normal Photoinduced Signal Transduction, is a Novel Basic Helix-Loop-Helix Protein,” Cell 95:657-667 (1998), which is hereby incorporated by reference in its entirety. The full-length sequence for POTH1 was cloned into a pET17b/GAD fusion cassette and transcribed under the control of the T7 promoter. […] Each 50 μl TnT reaction contained 2.0 μg of template plasmid DNA and 20 μmol (20 μCi) of labeled ^35S-methionine. The POTH1:GAD/BEL complex was immunoprecipitated with anti-GAD antibodies (Santa Cruz Biotechnology, Calif.). The proteins from the pellet (one-half the fraction) and for the prey (one-fourth of the reaction volume) were resolved on a 10% SDS-PAGE gel and visualized by autoradiography.

B1: POTH1: KNOX transcription factor of potato, SEQ ID NO:17, 345 residues (protein, listed as Solanum tuberosum)
chain: MDDEMYGFHSTRDDYADKALMSPENLMMQTEYNNFHNYTNSSILTSNPMMFGSDDIQLSSEQTNSFSTMTLQNNDNIYQIRSGNCGGGSGSGGSSKDHNDNNNNNEDYDEDGSNVIKAKIVSHPYYPKLLNAYIDCQKVGAPAGIVNLLEEIRQQTDFRKPNATSICIGADPELDEFMETYCDILLKYKSDLSRPFDEATTFLNKIEMQLGNLCKDDGGVSSDEELSCGEADASMRSEDNELKDRLLRKFGSHLSSLKLEFSKKKKKGKLPKEARQMLLAWWDDHFRWPYPTEADKNSLAESTGLDPKQINNWFINQRKRHWKPSENMQLAVMDNLSSQFFSSDD
- relative GUS-LUC activity of the pGAOP::GUS reporter construct ([1]; co-transfected effector, reporter alone = 100%): decreased by more than half
- repression of promoter activity, reporter with point mutation in the binding site ([1]; mutated ga20ox1 promoter): no detectable repression
- effect on the activity of the CaMV 35S promoter [2]: Neither StBEL-05 nor POTH1 showed any effect
- binding to ga20ox1 regulatory regions (mobility shift) [3]: only formed a complex with P1
- homodimer formation [4]: did not form homodimers in vitro
